Where a chain is given by its changes, count along the chain named.
B1: NRC3_wobSeed141_DR5_C6G_o1 (dsDNA)
DNA 1: GCAGTGAAAGTTCAGGACGAGGTAACGTAAAGCACGGCGATTGACAGCGTAGAATGAAGG
DNA 2: CCTTCATTCTACGCTGTCAATCGCCGTGCTTTACGTTACCTCGTCCTGAACTTTCACTGC
B2: NRC3_wobSeed53_DR2_T12C_o1 (dsDNA)
DNA 1: GCCCTTACGGGCCACGAGGTTATAGCACGACGAGCGGCGATTGACAGCGTAGAATGAAGG
DNA 2: CCTTCATTCTACGCTGTCAATCGCCGCTCGTCGTGCTATAACCTCGTGGCCCGTAAGGGC
B3: NRC3_wobSeed34_DR1_G22C_o1 (dsDNA)
DNA 1: GCATCGAAAGGTCGAAGGTGACTATACCCACCCGAAGCGATTGACAGCGTAGAATGAAGG
DNA 2: CCTTCATTCTACGCTGTCAATCGCTTCGGGTGGGTATAGTCACCTTCGACCTTTCGATGC
B4: NRC3_wobSeed113_DR4_G20C_o1 (dsDNA)
DNA 1: GCATATGTAGGTTAGCTGGCGTCATTCAGACTAGGCGCGATTGACAGCGTAGAATGAAGG
DNA 2: CCTTCATTCTACGCTGTCAATCGCGCCTAGTCTGAATGACGCCAGCTAACCTACATATGC
B5: NRC3_wobSeed117_DR4_A9C_o1 (dsDNA)
DNA 1: GCCGTCAACGTTCAACTAAGGTAACGTAAAGCACGCGCGATTGACAGCGTAGAATGAAGG
DNA 2: CCTTCATTCTACGCTGTCAATCGCGCGTGCTTTACGTTACCTTAGTTGAACGTTGACGGC
B6: NRC3_wobSeed137_DR5_G21A_o1 (dsDNA)
DNA 1: GCATATGTAGGTTACATCCGAGTCATTCAGGCTATGGCGATTGACAGCGTAGAATGAAGG
DNA 2: CCTTCATTCTACGCTGTCAATCGCCATAGCCTGAATGACTCGGATGTAACCTACATATGC
B7: NRC3_random_hg19_208_o1 (dsDNA)
DNA 1: GCAAGAGAGAGACACAATGGCTAAAGAAGGAAGAGTGCGATTGACAGCGTAGAATGAAGG
DNA 2: CCTTCATTCTACGCTGTCAATCGCACTCTTCCTTCTTTAGCCATTGTGTCTCTCTCTTGC
B8: NRC3_random_hg19_463_o1 (dsDNA)
DNA 1: GCCAGGGAGAGAGCCTTGCAAAGATGGAACAATCAGGCGATTGACAGCGTAGAATGAAGG
DNA 2: CCTTCATTCTACGCTGTCAATCGCCTGATTGTTCCATCTTTGCAAGGCTCTCTCCCTGGC
B9: NRC3_wobSeed28_DR1_A21T_o1 (dsDNA)
DNA 1: GCCCTACTGGGCCAAAGGTCTTTGATTCCAATGCTCGCGATTGACAGCGTAGAATGAAGG
DNA 2: CCTTCATTCTACGCTGTCAATCGCGAGCATTGGAATCAAAGACCTTTGGCCCAGTAGGGC
B10: NRC3_wobSeed2_DR0_C19A_o1 (dsDNA)
DNA 1: GCCCTAGTTGGTCAAGGTAACACACGCTATAGGTACGCGATTGACAGCGTAGAATGAAGG
DNA 2: CCTTCATTCTACGCTGTCAATCGCGTACCTATAGCGTGTGTTACCTTGACCAACTAGGGC
B11: NRC3_random_hg19_246_o1 (dsDNA)
DNA 1: GCCTCCAGACTGCCTTCAGATTCAAGACGCAAAGGCGCGATTGACAGCGTAGAATGAAGG
DNA 2: CCTTCATTCTACGCTGTCAATCGCGCCTTTGCGTCTTGAATCTGAAGGCAGTCTGGAGGC
B12: NRC3_wobSeed66_DR2_A14G_o1 (dsDNA)
DNA 1: GCAATACAGGGTCGCTAGGCCAGAGTAGGTACGAATGCGATTGACAGCGTAGAATGAAGG
DNA 2: CCTTCATTCTACGCTGTCAATCGCATTCGTACCTACTCTGGCCTAGCGACCCTGTATTGC
B13: NRC3_random_hg19_42_o1 (dsDNA)
DNA 1: GCTTTGTGTGGGCTGTCATTGGATGCTCTGGTCATGGCGATTGACAGCGTAGAATGAAGG
DNA 2: CCTTCATTCTACGCTGTCAATCGCCATGACCAGAGCATCCAATGACAGCCCACACAAAGC
B14: NRC3_wobSeed99_DR4_C23G_o1 (dsDNA)
DNA 1: GCTCTCGGAGGACACGAAAGGTGAGAGCTCGACATCGCGATTGACAGCGTAGAATGAAGG
DNA 2: CCTTCATTCTACGCTGTCAATCGCGATGTCGAGCTCTCACCTTTCGTGTCCTCCGAGAGC
B15: NRC3_wobSeed93_DR3_A14T_o1 (dsDNA)
DNA 1: GCAGTCAAAGTTCTTCTAGGTAACGTAAGATATGCTGCGATTGACAGCGTAGAATGAAGG
DNA 2: CCTTCATTCTACGCTGTCAATCGCAGCATATCTTACGTTACCTAGAAGAACTTTGACTGC
B16: NRC3_random_hg19_56_o1 (dsDNA)
DNA 1: GCTGTGCCTTCTGCACAAGGTAGGTCTACATCCACTGCGATTGACAGCGTAGAATGAAGG
DNA 2: CCTTCATTCTACGCTGTCAATCGCAGTGGATGTAGACCTACCTTGTGCAGAAGGCACAGC
B17: NRC3_wobSeed58_DR2_T12G_o1 (dsDNA)
DNA 1: GCATCGAAAGGGCGTGAGGTGAGTATACAGAAAGGCGCGATTGACAGCGTAGAATGAAGG
DNA 2: CCTTCATTCTACGCTGTCAATCGCGCCTTTCTGTATACTCACCTCACGCCCTTTCGATGC
B18: NRC3_random_hg19_157_o1 (dsDNA)
DNA 1: GCCCAAGATCTTGCCACTGCACTCCAGCCTGGATGAGCGATTGACAGCGTAGAATGAAGG
DNA 2: CCTTCATTCTACGCTGTCAATCGCTCATCCAGGCTGGAGTGCAGTGGCAAGATCTTGGGC
B19: NRC3_wobSeed18_DR0_T12G_o1 (dsDNA)
DNA 1: GCGATACAGGGGCAAGGCCAGAGTACGCGTATTGATGCGATTGACAGCGTAGAATGAAGG
DNA 2: CCTTCATTCTACGCTGTCAATCGCATCAATACGCGTACTCTGGCCTTGCCCCTGTATCGC
B20: NRC3_random_hg19_329_o1 (dsDNA)
DNA 1: GCAGGGATGAATAGATCGAAGTTACTGCCCATTCAAGCGATTGACAGCGTAGAATGAAGG
DNA 2: CCTTCATTCTACGCTGTCAATCGCTTGAATGGGCAGTAACTTCGATCTATTCATCCCTGC
B21: NRC3_random_hg19_170_o1 (dsDNA)
DNA 1: GCCTTGCATTGTGGTTTGGATTTGCATTTCCCTAAAGCGATTGACAGCGTAGAATGAAGG
DNA 2: CCTTCATTCTACGCTGTCAATCGCTTTAGGGAAATGCAAATCCAAACCACAATGCAAGGC
B22: NRC3_wobSeed65_DR2_T12A_o1 (dsDNA)
DNA 1: GCATATGTAGGATATCGGGTCATTCAGTTTGCGCATGCGATTGACAGCGTAGAATGAAGG
DNA 2: CCTTCATTCTACGCTGTCAATCGCATGCGCAAACTGAATGACCCGATATCCTACATATGC
B23: NRC3_random_hg19_343_o1 (dsDNA)
DNA 1: GCCCTGGAGTGTCACTTAGCCACATTCTATTGGCCAGCGATTGACAGCGTAGAATGAAGG
DNA 2: CCTTCATTCTACGCTGTCAATCGCTGGCCAATAGAATGTGGCTAAGTGACACTCCAGGGC
B24: NRC3_random_hg19_342_o1 (dsDNA)
DNA 1: GCATCGGGAGTGATGATAAGTAAGGCAAGCCCTGTTGCGATTGACAGCGTAGAATGAAGG
DNA 2: CCTTCATTCTACGCTGTCAATCGCAACAGGGCTTGCCTTACTTATCATCACTCCCGATGC
B25: NRC3_random_hg19_462_o1 (dsDNA)
DNA 1: GCCTGCTGCTTTCCTGATTACTGTAGCATCAGGTACGCGATTGACAGCGTAGAATGAAGG
DNA 2: CCTTCATTCTACGCTGTCAATCGCGTACCTGATGCTACAGTAATCAGGAAAGCAGCAGGC
B26: NRC3_random_hg19_215_o1 (dsDNA)
DNA 1: GCTGTGGTCCCAAACACCTCAAGCATGACAATGCGTGCGATTGACAGCGTAGAATGAAGG
DNA 2: CCTTCATTCTACGCTGTCAATCGCACGCATTGTCATGCTTGAGGTGTTTGGGACCACAGC
B27: NRC3_wobSeed72_DR2_T24C_o1 (dsDNA)
DNA 1: GCTCGAGTAGGTTACGGGGGCATCCAGGGATGAAGAGCGATTGACAGCGTAGAATGAAGG
DNA 2: CCTTCATTCTACGCTGTCAATCGCTCTTCATCCCTGGATGCCCCCGTAACCTACTCGAGC
B28: NRC3_wobSeed72_DR2_G16T_o1 (dsDNA)
DNA 1: B27 DNA 1 with G16T, C24T
DNA 2: B27 DNA 2 with G37A, C45A
B29: NRC3_wobSeed72_DR2_G17C_o1 (dsDNA)
DNA 1: B27 DNA 1 with G17C, C24T
DNA 2: B27 DNA 2 with G37A, C44G
B30: NRC3_random_hg19_338_o1 (dsDNA)
DNA 1: GCACACAGAGAAACTCTTGCCAGTAGCAGTAGTACCGCGATTGACAGCGTAGAATGAAGG
DNA 2: CCTTCATTCTACGCTGTCAATCGCGGTACTACTGCTACTGGCAAGAGTTTCTCTGTGTGC
B31: NRC3_random_hg19_32_o1 (dsDNA)
DNA 1: GCTGTGTCAGACAGGCAAAGCACTTAAGATTTGTGAGCGATTGACAGCGTAGAATGAAGG
DNA 2: CCTTCATTCTACGCTGTCAATCGCTCACAAATCTTAAGTGCTTTGCCTGTCTGACACAGC

What follows are binders tested against PPARa:RXRa (Homo sapiens, UniProt Q07869;P19793 full;full) (assay: no ligand; PBM; 270 nM : 90 nM RXRa; PBS pH 7.4, 2% milk, 0.02% Triton X-100, 1 mM DTT, BSA, 0.4 mg/ml salmon testes DNA). Conditions: tags: GST kept;His cleaved; copies: 1;1; label: surface-attached array probe.
Chain of PPARa:RXRa (Q07869 whole entry, chain 1 of 2): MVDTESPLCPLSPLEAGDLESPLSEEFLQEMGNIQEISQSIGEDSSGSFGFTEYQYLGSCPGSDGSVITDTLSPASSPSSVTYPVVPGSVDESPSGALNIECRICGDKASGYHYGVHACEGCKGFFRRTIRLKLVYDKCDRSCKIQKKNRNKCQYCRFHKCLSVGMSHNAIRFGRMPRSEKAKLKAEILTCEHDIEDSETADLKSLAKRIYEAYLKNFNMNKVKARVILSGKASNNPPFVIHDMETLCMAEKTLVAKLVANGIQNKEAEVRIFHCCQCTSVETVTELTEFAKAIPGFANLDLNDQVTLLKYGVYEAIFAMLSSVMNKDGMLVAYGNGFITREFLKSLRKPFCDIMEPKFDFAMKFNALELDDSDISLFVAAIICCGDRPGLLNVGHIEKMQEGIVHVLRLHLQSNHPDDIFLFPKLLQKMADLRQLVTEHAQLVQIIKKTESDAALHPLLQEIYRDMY
Chain of PPARa:RXRa (P19793 whole entry, chain 2 of 2): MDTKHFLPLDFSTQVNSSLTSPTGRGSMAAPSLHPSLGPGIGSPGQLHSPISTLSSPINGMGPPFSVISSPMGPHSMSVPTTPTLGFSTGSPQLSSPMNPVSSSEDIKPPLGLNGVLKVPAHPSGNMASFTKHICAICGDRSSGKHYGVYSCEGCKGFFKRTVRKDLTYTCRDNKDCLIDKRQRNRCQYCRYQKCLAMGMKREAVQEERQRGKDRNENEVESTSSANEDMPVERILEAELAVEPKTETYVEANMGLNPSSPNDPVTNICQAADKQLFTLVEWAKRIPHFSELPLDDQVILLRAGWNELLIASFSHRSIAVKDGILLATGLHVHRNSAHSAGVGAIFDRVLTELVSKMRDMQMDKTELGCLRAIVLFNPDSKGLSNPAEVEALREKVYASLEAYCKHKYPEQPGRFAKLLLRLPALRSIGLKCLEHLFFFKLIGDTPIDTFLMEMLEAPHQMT
In short: (§1)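 Custom Agilent 4×180K protein-binding microarrays carried double-stranded probes. Their 34-nt variable regions held direct-repeat seeds, single-nucleotide variants, half-site ablations and random human genomic background sequences. Arrays were incubated 1 h with ligand-free nuclear receptor dimers in PBS pH 7.4, 2% milk, 0.02% Triton X-100, 1 mM DTT, 0.2 mg/mL BSA and 0.4 mg/ml salmon testes DNA. Antibodies against each partner (one per run) detected binding, and scanned fluorescence was regression-normalized. Binding z-scores use random background probes as reference.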

Row | Binder | binding signal
1 | B1 | 3.27 PBM z-score against 500 random probes

These binders were tested against PXR:RXRa (Homo sapiens, UniProt O75469;P19793 full;full) in the same assay as above. Conditions: tags: His kept;His cleaved; copies: 1;1; label: surface-attached array probe.
Chain of PXR:RXRa (O75469 whole entry, chain 1 of 2): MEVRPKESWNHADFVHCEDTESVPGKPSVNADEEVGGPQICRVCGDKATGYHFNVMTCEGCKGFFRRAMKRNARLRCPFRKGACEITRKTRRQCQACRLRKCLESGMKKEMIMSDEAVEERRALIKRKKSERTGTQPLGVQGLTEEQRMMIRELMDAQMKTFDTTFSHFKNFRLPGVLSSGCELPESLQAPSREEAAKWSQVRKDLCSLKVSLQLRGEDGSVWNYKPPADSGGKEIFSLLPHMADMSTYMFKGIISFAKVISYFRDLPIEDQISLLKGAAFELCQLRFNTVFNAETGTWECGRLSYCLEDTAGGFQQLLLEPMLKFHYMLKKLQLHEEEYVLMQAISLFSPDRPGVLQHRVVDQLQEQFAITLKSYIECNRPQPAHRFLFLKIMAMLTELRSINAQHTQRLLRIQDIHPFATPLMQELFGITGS
Chain of PXR:RXRa (P19793 whole entry, chain 2 of 2): as the sequence (P19793 whole entry, chain 2 of 2) above
In short: as §1

Row | Binder | binding signal
2 | B2 | 0.44 PBM z-score against 500 random probes
3 | B3 | 3.06 PBM z-score against 500 random probes
4 | B4 | -0.13 PBM z-score against 500 random probes
5 | B5 | 0.48 PBM z-score against 500 random probes
6 | B6 | 0.38 PBM z-score against 500 random probes
7 | B7 | 0.26 PBM z-score against 500 random probes
8 | B8 | -0.42 PBM z-score against 500 random probes
9 | B9 | -0.05 PBM z-score against 500 random probes
10 | B10 | 0.48 PBM z-score against 500 random probes
11 | B11 | -0.41 PBM z-score against 500 random probes
12 | B12 | 0.28 PBM z-score against 500 random probes
13 | B13 | 0.44 PBM z-score against 500 random probes
14 | B14 | 0.4 PBM z-score against 500 random probes
15 | B15 | 0.13 PBM z-score against 500 random probes
16 | B16 | -0.54 PBM z-score against 500 random probes
17 | B1 | 3 PBM z-score against 500 random probes

Row | Binder | binding signal
18 | B17 | 0.34 PBM z-score against 500 random probes
19 | B18 | -0.24 PBM z-score against 500 random probes
20 | B19 | -0.01 PBM z-score against 500 random probes
21 | B20 | 0.08 PBM z-score against 500 random probes
22 | B21 | 0.34 PBM z-score against 500 random probes
23 | B22 | 3.03 PBM z-score against 500 random probes
24 | B23 | 0.14 PBM z-score against 500 random probes
25 | B24 | -0.7 PBM z-score against 500 random probes
26 | B25 | -0.18 PBM z-score against 500 random probes
27 | B26 | -0.46 PBM z-score against 500 random probes
28 | B27 | 3.05 PBM z-score against 500 random probes
29 | B28 | 0.31 PBM z-score against 500 random probes
30 | B29 | 0.24 PBM z-score against 500 random probes
31 | B30 | -0.32 PBM z-score against 500 random probes
32 | B31 | -0.5 PBM z-score against 500 random probes
